# Experimental data reported in patent US20100086552A1 (VALTION TEKNILLINEN TUTKIMUSKESKUS, published 2010).
# Assays:
# [1] = molecular target: T1, native bovine milk β-lactoglobulin (nBLG, Sigma) (bovine, UniProt P02754 17-178, biotinylated where immobilised on streptavidin wells or chips; the soluble competitor and the crystallised protein are not biotinylated); test: competitive ELISA: biotinylated BLG AB dimer on streptavidin wells, KRVG peptide incubated with the immobilised BLG, wells washed or not washed, then D1 IgE Fab (the blocked ligand); AFOS-conjugated goat anti-human kappa antibody, A405
# T1 construct: also called native BLG; β-lactoglobulin AB dimer
# T1 sequence: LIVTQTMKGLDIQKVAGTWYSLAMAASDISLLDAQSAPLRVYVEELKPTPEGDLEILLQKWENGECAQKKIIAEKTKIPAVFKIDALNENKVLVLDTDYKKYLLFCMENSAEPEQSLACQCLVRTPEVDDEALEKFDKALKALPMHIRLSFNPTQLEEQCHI
# [2] = molecular target: T2, rBLG-His6 (recombinant bovine β-lactoglobulin with C-terminal His6 tag) (bovine, UniProt P02754 17-178, biotinylated with Sulfo-NHS-LC-biotin (2 mol biotin : 1 mol protein) for immobilisation); test: BIAcore SPR, biotinylated rBLG-His6 on streptavidin chip, D1 IgE Fab as analyte (1.1-138.9 nM)
# T2 construct: It was secreted to the E. coli periplasm through a pelB signal that is not part of the entry; also called recombinant BLG
# T2 chain: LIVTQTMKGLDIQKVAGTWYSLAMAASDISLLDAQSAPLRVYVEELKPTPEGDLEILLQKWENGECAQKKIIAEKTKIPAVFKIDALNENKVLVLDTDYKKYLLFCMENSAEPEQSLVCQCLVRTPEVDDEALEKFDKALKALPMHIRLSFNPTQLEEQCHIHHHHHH
# rBLG-His6 T18Y/E45Y/L57Y = molecular target: T3, rBLG-His6 T18Y/E45Y/L57Y (bovine, UniProt P02754 17-178, biotinylated with Sulfo-NHS-LC-biotin (2 mol biotin : 1 mol protein) for immobilisation); test: ELISA: 1 µg biotinylated BLG on streptavidin wells, D1 IgE Fab, AFOS-conjugated goat anti-human kappa antibody, A405 after 20 min
# T3 construct: also called Triple mutant; Triple
# T3 chain: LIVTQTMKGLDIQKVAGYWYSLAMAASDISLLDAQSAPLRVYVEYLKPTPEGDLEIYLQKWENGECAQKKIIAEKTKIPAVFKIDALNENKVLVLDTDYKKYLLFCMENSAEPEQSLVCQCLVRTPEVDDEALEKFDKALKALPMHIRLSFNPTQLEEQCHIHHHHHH
# rBLG-His6 T18Y = molecular target: T4, rBLG-His6 T18Y (bovine, UniProt P02754 17-178, biotinylated with Sulfo-NHS-LC-biotin (2 mol biotin : 1 mol protein) for immobilisation); test: BIAcore SPR, biotinylated rBLG-His6 T18Y on streptavidin chip, D1 IgE Fab as analyte (1.1-138.9 nM)
# T4 chain: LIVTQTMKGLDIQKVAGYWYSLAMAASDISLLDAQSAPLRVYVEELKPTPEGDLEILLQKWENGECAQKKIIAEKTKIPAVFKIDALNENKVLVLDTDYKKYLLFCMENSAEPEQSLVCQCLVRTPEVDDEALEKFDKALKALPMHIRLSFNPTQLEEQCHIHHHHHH
# bsa = molecular target: T5, bsa (Bos taurus (bovine), UniProt P02769); test: ELISA: D1 IgE Fab on wells with bovine serum albumin, AFOS-conjugated goat anti-human kappa antibody, A405 after 20 min
# T5 construct: also called bovine serum albumin
# T5 sequence (P02769 25-607 limits assumed): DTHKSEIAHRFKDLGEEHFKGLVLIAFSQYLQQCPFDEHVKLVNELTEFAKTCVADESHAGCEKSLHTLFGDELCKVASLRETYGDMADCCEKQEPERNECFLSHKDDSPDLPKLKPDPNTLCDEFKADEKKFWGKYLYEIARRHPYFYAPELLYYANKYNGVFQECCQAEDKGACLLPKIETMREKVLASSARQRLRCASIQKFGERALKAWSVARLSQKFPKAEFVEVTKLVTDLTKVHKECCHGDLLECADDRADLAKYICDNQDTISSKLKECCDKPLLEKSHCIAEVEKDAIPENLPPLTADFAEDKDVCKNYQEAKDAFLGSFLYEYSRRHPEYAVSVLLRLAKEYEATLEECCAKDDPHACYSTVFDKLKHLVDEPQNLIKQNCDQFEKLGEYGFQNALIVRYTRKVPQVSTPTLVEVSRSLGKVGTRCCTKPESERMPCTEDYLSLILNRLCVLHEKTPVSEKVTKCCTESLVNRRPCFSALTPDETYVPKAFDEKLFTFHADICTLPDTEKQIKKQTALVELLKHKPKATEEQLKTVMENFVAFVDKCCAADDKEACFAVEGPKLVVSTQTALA
# [3] = molecular target: T1, native bovine milk β-lactoglobulin …; test: BIAcore SPR, biotinylated nBLG on streptavidin chip, D1 IgE Fab as analyte (1.1-138.9 nM)
Binder,binding result [1],Ka [2],Kd [2],koff [2],kon [2],binding result (rBLG-His6 T18Y/E45Y/L57Y),Ka (rBLG-His6 T18Y),Kd (rBLG-His6 T18Y),koff (rBLG-His6 T18Y),kon (rBLG-His6 T18Y),binding result (bsa),Ka [3],Kd [3],koff [3],kon [3]
KRVG [peptide KRVG (from the HCDR3 of D1 IgE Fab)],binds,,,,,,,,,,,,,,
"D1 IgE Fab (human anti-β-lactoglobulin Fab fragment with human IgG1 subtype, derived from the D1 scFv of a human IgE scFv phage library) (Fab, V domains shown, it was made in E. coli RV308 and purified on nickel; also called D1/Fab; Fab/D1) VH: QVSLRESGGGLVQPGRSLRLSCTASGFTFRHHGMTWVRQAPGKGLEWVASLSGSGTKTHFADSVKGRFTISRDNSNNTLYLQMDNVRDEDTAIYYCAKAKRVGATGYFDLWGRGTLVTVSS VL: DIVMTQSPSSLSASVGDRVTITCRASQGISSRLAWYQQKPGKAPKLLIYAASSLQSGVPSRFSGSGSGTEFTLTISSLQPEDFATYYCQQYHSYPWTFGQGTKVEIKR",,1.2e+08 M⁻¹,8.5 nM,0.0082 s⁻¹,961000 M⁻¹ s⁻¹,no binding (tested: 1:15000 dilution of 1.6 mg/ml),1.6e+06 M⁻¹,610 nM,0.082 s⁻¹,130000 M⁻¹ s⁻¹,no binding (tested: 1:15000 dilution of 1.6 mg/ml),3.7e+08 M⁻¹,2.7 nM,0.0048 s⁻¹,1.8e+06 M⁻¹ s⁻¹
